# Data taken from the Human Domainome abundance scans (Beltran et al. 2025).
# ± gives the uncertainty stated by the source.
# B1: Pituitary-specific positive transcription factor 1, residues 130 to 198; numbered along this chain, P28069 (parent)
# chain: RELEKFANEFKVRRIKLGYTQTNVGEALAAVHGSEFSQTTICRFENLQLSFKNACKLKAILSKWLEEAE
# Variants of: B1
# Assay: abundance fitness (aPCA) (normalised: wild type 0, dead -1); higher = more abundant; growth selection in yeast, the domain comes from the species named
# Conditions: Homo sapiens
row,Variant,abundance fitness
1,N8T,-0.04 ± 0.1
2,E45Y,-0.993 ± 0.31
3,A59T,0.042 ± 0.069
4,N53E,0.355 ± 0.077
5,N53P,-0.115 ± 0.055
6,R43Y,-0.846 ± 0.47
7,E35R,-0.208 ± 0.055
8,L57M,0.285 ± 0.11
9,Y19W,-0.283 ± 0.16
10,R13E,-0.976 ± 0.3
11,A7T,-0.356 ± 0.17
12,S50Y,-0.822 ± 0.29
13,T22I,-0.525 ± 0.11
14,V24F,-0.92 ± 0.22
15,K63A,0.025 ± 0.061
16,F36C,-0.526 ± 0.33
17,F10V,-0.649 ± 0.12
18,W64A,-0.496 ± 0.18
19,K58S,-0.58 ± 0.069
20,K56F,-0.554 ± 0.12
21,R43L,-0.181 ± 0.052

row,Variant,abundance fitness
1,A30F,-0.726 ± 0.16
2,A7Q,-0.944 ± 0.46
3,A27F,-0.437 ± 0.17
4,K63C,-0.443 ± 0.098
5,N53R,0.206 ± 0.055
6,S62P,-0.909 ± 0.27
7,L3T,-0.867 ± 0.4
8,K58E,-0.738 ± 0.093
9,S34H,0.039 ± 0.23
10,Y19R,-0.718 ± 0.23
11,A29T,0.063 ± 0.075
12,E35K,-0.23 ± 0.15
13,V12R,-0.101 ± 0.12
14,E35I,-0.276 ± 0.07
15,E4V,-0.072 ± 0.07
16,C55N,-0.201 ± 0.11
17,G25V,0.085 ± 0.045
18,A54F,-0.131 ± 0.19
19,R43A,0.12 ± 0.076
20,E67P,-0.721 ± 0.26
21,E2R,-0.624 ± 0.091

row,Variant,abundance fitness
1,V12H,0.095 ± 0.12
2,Y19S,-0.696 ± 0.23
3,F44T,-1.06 ± 0.23
4,A68C,-0.752 ± 0.22
5,T40I,-0.642 ± 0.43
6,A68D,-0.78 ± 0.34
7,K58P,-0.708 ± 0.17
8,V31M,-0.135 ± 0.09
9,T20Y,-1.17 ± 0.45
10,S37V,-0.833 ± 0.095
11,N8M,-0.027 ± 0.11
12,F10T,-0.915 ± 0.28
13,Y19C,-0.562 ± 0.15
14,I60N,-0.357 ± 0.14
15,E4Y,-0.604 ± 0.24
16,N53W,-0.271 ± 0.1
17,R14Y,-0.745 ± 0.2
18,F10L,-0.731 ± 0.081
19,V12A,0.173 ± 0.06
20,F6W,-0.333 ± 0.052
21,A29R,-0.127 ± 0.063

row,Variant,abundance fitness
1,L57F,-0.126 ± 0.077
2,F10I,-0.963 ± 0.39
3,C55K,-0.153 ± 0.1
4,E9Q,-0.188 ± 0.084
5,I41K,-0.842 ± 0.33
6,K58I,-0.984 ± 0.24
7,F36P,-0.702 ± 0.16
8,E66F,-0.242 ± 0.11
9,R14V,-0.712 ± 0.2
10,T40A,-0.235 ± 0.081
11,G25W,-0.001 ± 0.066
12,G33C,-0.791 ± 0.11
13,K16N,-0.122 ± 0.076
14,I15T,-0.13 ± 0.073
15,T20I,-0.951 ± 0.17
16,A30S,-0.138 ± 0.058
17,A68G,-0.664 ± 0.15
18,S37Y,-0.508 ± 0.11
19,I60Q,-0.559 ± 0.18
20,I15G,-0.404 ± 0.087
21,F51L,-0.19 ± 0.063
